Test results as given in patent publication US20050208048A1.

Biological target: human HLA-DR on cells (DRβ1 allele not stated) (human)
Experiment: cell-based or functional assay

Row | % Annexin V Propidium Iodide Positive, antibody at 5 µg/ml, with Z-VAD-fmk | % Annexin V Propidium Iodide Positive, antibody at 5 µg/ml, without Z-VAD-fmk | suppression of SEB-triggered T cell proliferation ([3H]thymidine) | Binder
1 | 52.7% | 57.4% | – | murine/human chimeric DN1924 HLA-DR-specific monoclonal antibody (antibody, human IgG2, kappa) heavy: EVKLLESGGGLVQPGGSLKLSCAASGFDFSRYWMSWVRQAPGKGLEWIGEINPDSSTINYTPSLKDKFIISRDNAKNTLYLQMSKVRSEDTALYYCARQPYYYGSSYWYFDVWGAGTTVTVSSAASTKGPSVFPLAPCSRSTSESTAALGCLVKDYFPEPVTVSWNSGALTSGVHTFPAVLQSSGLYSLSSVVTVTSSNFGTQTYTCNVDHKPSNTKVDKTVERKCCVECPPCPAPPAAAPSVFLFPPKPKDTLMISRTPEVTCVVVDVSHEDPEVQFNWYVDGMEVHNAKTKPREEQFNSTFRVVSVLTVVHQDWLNGKEYKCKVSNKGLPAPIEKTISKTKGQPREPQVYTLPPSREEMTKNQVSLTCLVKGFYPSDIAVEWESNGQPENNYKTTPPMLDSDGSFFLYSKLTVDKSRWQQGNVFSCSVMHEALHNHYTQKSLSLSPGK light: ETTVTQSPASLSMAIGEKVTIRCITSTDIDDDMNWYQQKPGEPPKLLISEGNTLRPGVPSRFSSSGYGTDFVFTIENMLSEDVADYYLQSDNLPYTFGGGTKLEIKTVAAPSVFIFPPSDEQLKSGTASVVCLLNNFYPREAKVQWKVDNALQSGNSQESVTEQDSKDSTYSLSSTLTLSKADYEKHKVYACEVTHQGLSSPVTKSFNRGEC
2 | – | – | 70% | HLA-DR-specific monoclonal antibody L243 (antibody, from another filing, V domains shown) VH: QIQLVQSGPELKKPGETVKISCKASGFTFTNYGMNWVKQAPGKGLKWMGWINTYTREPTYADDFKGRFAFSLETSASTAYLQINNLKNEDTAKYFCARDITAVVPTGFDYWGQGTTLTVSS VL: DIQMTQSPASLSVSVGETVTITCRASENIYSNLAWYRQKQGKSPQLLVFAASNLADGVPSRFSGSGSGTQYSLKINSLQSEDFGDYYCQHFWTTPWAFGGGTNLEIKR
